The source of these data is patent publication US20170306037A1 (Novartis, published 2017).

By Kd is commonly meant the constant that tells how readily two partners part at equilibrium.

The target of assay [1] is T1, Recombinant human GITR and human Fc fusion protein (hGITR-hFc) (human, UniProt Q9Y5U5 26-162, limits assumed, biotinylated in the ForteBio Octet assays (sites not given)).
T1 construct: also called biotinylated hGITR-hFc; not shown: human Fc
T1 sequence: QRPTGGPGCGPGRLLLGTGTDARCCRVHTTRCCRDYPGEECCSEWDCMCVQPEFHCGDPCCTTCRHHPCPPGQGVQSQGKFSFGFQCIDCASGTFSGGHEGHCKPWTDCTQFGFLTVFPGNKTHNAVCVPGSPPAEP
As to the kind of experiment: ForteBio Octet QK, streptavidin biosensors coated with biotinylated hGITR-hFc. The source says: Human germline residues incorporated into the optimized reference MAB1opFab in FR1 and FR3 are those specified by the PCR primers used to amplify the human V-segment repertoire and thus are present in all members of the Humaneered® Antibody V-region libraries. The optimized reference Fab is constructed to assess whether or not any of the changes to human germline alter the properties of Fab binding.

In assay [2] the target is T2, human GITR extracellular domain (hGITR ECD) (human, UniProt Q9Y5U5 26-162).
T2 construct: also called human GITR ECD
T2 sequence: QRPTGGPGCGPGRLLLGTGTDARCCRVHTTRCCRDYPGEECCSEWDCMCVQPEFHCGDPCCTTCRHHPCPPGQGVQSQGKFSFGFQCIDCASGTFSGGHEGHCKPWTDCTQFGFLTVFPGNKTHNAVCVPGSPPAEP
As to the kind of experiment: ELISA on coated GITR ECD. The method, then:
(§1) The plate was blocked with a solution of 1% BSA in PBS for one hour at room temperature and then rinsed three times with PBST. The MAB was then diluted to 0.5 μg/mL or 1 μg/mL in PBS and 20 μL was added to each well. The plate was incubated for 1 hour at room temperature and then washed three times with PBST. […] The plate was incubated for 1 hour at room temperature, and then washed six times with PBST. 25 μL of SureBlue TMB (KPL 52-00-02) substrate was added to each well and the plate was incubated for about 10 min at room temperature.
For orientation: An ELISA detects its analyte on a solid surface through an enzyme-linked reagent.

Assay [3] has as its target T3, mouse GITR extracellular domain (mouse, UniProt O35714 20-153).
T3 construct: extracellular domain; also called murine GITR; rodent GITR
T3 sequence (looked up): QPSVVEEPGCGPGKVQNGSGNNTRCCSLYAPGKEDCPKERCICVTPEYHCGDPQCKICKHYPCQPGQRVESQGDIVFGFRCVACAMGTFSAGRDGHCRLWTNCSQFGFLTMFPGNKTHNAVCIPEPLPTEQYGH
As to the kind of experiment: ELISA on coated GITR ECD. As for the experimental part: as §1

Assay [4] addresses T4, human GITR expressed on cells (human, UniProt Q9Y5U5 27-241).
T4 sequence: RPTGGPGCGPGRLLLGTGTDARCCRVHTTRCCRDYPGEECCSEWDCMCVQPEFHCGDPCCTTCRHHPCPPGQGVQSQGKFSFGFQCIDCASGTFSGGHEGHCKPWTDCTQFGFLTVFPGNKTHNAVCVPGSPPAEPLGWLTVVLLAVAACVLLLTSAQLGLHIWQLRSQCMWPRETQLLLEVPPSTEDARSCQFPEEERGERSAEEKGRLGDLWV
As to the kind of experiment: cell-based or functional assay.

Assay [5] addresses T4, human GITR expressed on cells. As to the kind of experiment: FACS competition on hGITR stable HEK293 cells: ligand titrated first, then 4 nM MAB7 as competitor, PE anti-human detection. The method, then:
The ability of MAB to block ligand binding was assessed using HEK293 NFκB reporter parental cells and hGITR stable cells were used in competition binding assays and FACS analysis. Briefly, harvested cells were plated 1×10⁶ cells per mL, 100 μL per well to a 96 well round bottom FACS plate (Corning), then resuspended in 200 μL of cold FACS buffer (1×PBS+1% FBS-HI+0.1% sodium azide) per well. […] Plates were incubated for 1 hour on ice protected from light, cells washed, then prepared 4 nM isotype control or MAB solutions were prepared and added to appropriate wells at 100 μL per well and plates were incubated for 1 hour on ice protected from light, cells washed, then PE-conjugated goat-anti-human detection antibody (Jackson ImmunoResearch) prepared at 1:100 dilution in FACS buffer was added at 100 μL per well and plates were incubated for 30 minutes on ice protected from light. Cells were washed in FACS buffer then cells were fixed with 100 μL per well of BD CytoFix (BD Biosciences) and incubated for further 15 minutes on ice protected from light.

Assay [6] deals with T1, Recombinant human GITR and human Fc …. As to the kind of experiment: ForteBio Octet, Fab on human GITR (biotinylated hGITR-hFc sensors per paragraph 356); experiment b. (Biolayer interferometry detects binding as a change in optical thickness at a sensor tip.)
Assay [7] has the same target. As to the kind of experiment: ForteBio Octet, Fab on human GITR (biotinylated hGITR-hFc sensors per paragraph 356); experiment a.
Assay [8] concerns the target T5, human GITR (hGITR), form not stated (human, UniProt Q9Y5U5 26-162, limits assumed).
T5 construct: the construct is not described
T5 sequence: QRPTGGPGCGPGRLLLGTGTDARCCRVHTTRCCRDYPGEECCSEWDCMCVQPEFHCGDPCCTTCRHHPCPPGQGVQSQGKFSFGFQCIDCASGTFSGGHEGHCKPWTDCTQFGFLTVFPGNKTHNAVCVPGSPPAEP
As to the kind of experiment: Biacore (SPR), IgG.

Assay [9] deals with cyno GITR (cGITR), form not stated (cynomolgus monkey). As to the kind of experiment: Biacore (SPR), IgG.
Assay [10] deals with T1, Recombinant human GITR and human Fc …. As to the kind of experiment: ForteBio Octet, Fab on human GITR (biotinylated hGITR-hFc sensors per paragraph 356); experiment c.

B1: MAB1rFab (reference Fab of MAB1) (Fab, V domains shown)
VH: QVQLKESGPGLVAPSQSLSITCTVSGFSLRSYGVDWVRQPPGKGLEWLGVIWGGGGTNYNSALMAKLSISKDKSKSQVFLKMNSLQTDDTAMYYCAKHAYGHDGGFAMDYWGQGTSVTVSS
VL: EIVMTQSPKSMSMSVGERVTLSCKASENVDTFVSWYQQKPDHSPKLLIYGASNRYTGVPDRFTGSGSATDFTLTISSVQAEDLADYHCGQSYSYPFTFGSGTKLEIK
Regarding B1, the binding result in assay [1] is “binds”.

B2: MAB1 (murine monoclonal GITR agonist antibody) (antibody, V domains shown)
VH: QVQLKESGPGLVAPSQSLSITCTVSGFSLRSYGVDWVRQPPGKGLEWLGVIWGGGGTNYNSALMAKLSISKDKSKSQVFLKMNSLQTDDTAMYYCAKHAYGHDGGFAMDYWGQGTSVTVSS
VL: NIVMTQSPKSMSMSVGERVTLSCKASENVDTFVSWYQQKPDHSPKLLIYGASNRYTGVPDRFTGSGSATDFTLTISSVQAEDLADYHCGQSYSYPFTFGSGTKLEIK
notes: Mouse hybridoma antibody; also called parental mouse antibody MAB1; MAB1 parental Ab
In the case of B2, the binding result in assay [2] is recorded as “binds”; in assay [3], “no binding”.

B3: recombinant human GITR ligand (GITR-L) (ligand, UniProt Q9UNG2 52-177, looked up)
chain: ETAKEPCMAKFGPLPSKWQMASSEPPCVNKVSDWKLEILQNGLYLIYGQVAPNANYNDVAPFEVRLYKNKDMIQTLTNKSKIQNVGGTYELHVGDTIDLIFNSEHQVLKNNTYWGIILLANPQFIS
For B3, the “EC50, NFκB-luciferase reporter in 293 cells overexpressing human GITR” value in [4] is about 65 nM. Besides, the “IC50 (read off the curve)” value in assay [5] was ~0.2 molar ratio of Human GITR Ligand to MAB7 (MAB7 at 4 nM).

B4: MAB6 (IgG1 kappa) (antibody, V domains shown)
VH: EVQLVESGGGLVQSGGSLRLSCAASGFSLSSYGVDWVRQAPGKGLEWLGVIWGGGGTYYTSSLMARFTISRDNSKNTLYLQMNSLRAEDTAVYYCAKHAYGHDGGFAMDYWGQGTLVTVSS
VL: EIVMTQSPATLSVSPGERATLSCRASESVSSNVAWYQQRPGQAPRLLIYGASNRATGIPARFSGSGSGTDFTLTISRLEPEDFAVYYCGQSYSYPFTFGQGTKLEIKR
In the case of B4, in assay [3], the binding result is “no binding (tested: 0.5 µg/mL or 1 µg/mL)”.

B5: MAB5 Fab (human full-chain Fab) (Fab, V domains shown)
VH: EVQLVESGGGLVQSGGSLRLSCAASGFSLSSYGVDWVRQAPGKGLEWLGVIWGGGGTYYTSSLMGRFTISRDNSKNTLYLQMNSLRAEDTAVYYCAKHAYGHDGGFAMDYWGQGTLVTVSS
VL: EIVMTQSPATLSVSPGERATLSCRASESVSSNVAWYQQRPGQAPRLLIYGASNRATGIPARFSGSGSGTDFTLTISRLEPEDFAVYYCGQSYSYPFTFGQGTKLEIK
notes: human kappa constant; also called MAB5(b)
B5: the dissociation constant Kd in assay [6] was found to be 3.74 nM.

B6: MAB4 Fab (human full-chain Fab) (Fab, V domains shown)
VH: EVQLVESGGGLVQSGGSLRLSCAASGFSLSSYGVDWVRQAPGKGLEWVGVIWGGGGTYYASSLMGRFTISRDNSKNTLYLQMNSLRAEDTAVYYCAKHAYGHDGGFAMDYWGQGTLVTVSS
VL: EIVMTQSPATLSVSPGERATLSCRASESVSSNVAWYQQRPGQAPRLLIYGASNRATGIPARFSGSGSGTDFTLTISRLEPEDFAVYYCGQSYSYPFTFGQGTKLEIK
notes: human kappa constant; also called MAB4(b)
In the case of B6, the Kd in [6] is 2.43 nM.

B7: MAB2 Fab (human full-chain Fab) (Fab, V domains shown)
VH: QVQLVESGGGLVQPGGSLRLSCAASGFSLSSYGVDWVRQAPGKGLEWVGVIWGGGGTYYASSVMARFTISRDNSKNTLYLQMNSLRAEDTAVYYCAKHAYGHDGGFAMDYWGQGTLVTVSS
VL: EIVMTQSPATLSVSPGERATLSCRASESVSSNVAWYQQRPGQAPRLLIYGASNRATGIPARFSGSGSGTDFTLTISRLEPEDFAVYYCGQSYSYPFTFGQGTKLEIK
notes: human kappa constant; purified on Ni-NTA; also called MAB2(a)
For the molecule B7, the dissociation constant (Kd) in assay [7] is 6.84 nM.

B8: MAB7 (IgG1 kappa) (antibody, V domains shown)
VH: EVQLVESGGGLVQSGGSLRLSCAASGFSLSSYGVDWVRQAPGKGLEWVGVIWGGGGTYYASSLMGRFTISRDNSKNTLYLQMNSLRAEDTAVYYCARHAYGHDGGFAMDYWGQGTLVTVSS
VL: EIVMTQSPATLSVSPGERATLSCRASESVSSNVAWYQQRPGQAPRLLIYGASNRATGIPARFSGSGSGTDFTLTISRLEPEDFAVYYCGQSYSYPFTFGQGTKLEIKR
notes: MAB4 with the glycation site KH changed to RH
Take B8: the Kd in assay [8] came to 4.29 nM; in [9] it was 3.67 nM. In addition, the binding result in [3] is given as “no binding (tested: not on the sheet; paragraph 336: 0.5 or 1 µg/mL)”.

B9: MAB3 Fab (human full-chain Fab) (Fab, V domains shown)
VH: QVQLVESGGGLVQPGGSLRLSCAASGFSLSSYGVDWVRQAPGKGLEWLGVIWGGGGTYYTASLMGRFTISRDNSKNTLYLQMNSLRAEDTAVYYCAKHAYGHDGGFAMDYWGQGTLVTVSS
VL: EIVMTQSPATLSVSPGERATLSCRASQSVSSNLAWYQQKPGQAPRLLIYGASNRATGIPDRFSGSGSGTDFTLTISRLEPEDFAVYYCGQSYSYPFTFGQGTKLEIK
notes: human kappa constant; also called MAB3(a)
Turning to B9, the equilibrium dissociation constant (Kd) in [7] came out at 2.98 nM.

B10: MAB8 (IgG1 kappa) (antibody, V domains shown)
VH: EVQLVESGGGLVQSGGSLRLSCAASGFSLSSYGVDWVRQAPGKGLEWVGVIWGGGGTYYASSLMGRFTISRDNSKNTLYLQMNSLRAEDTAVYYCARNAYGHDGGFAMDYWGQGTLVTVSS
VL: EIVMTQSPATLSVSPGERATLSCRASESVSSNVAWYQQRPGQAPRLLIYGASNRATGIPARFSGSGSGTDFTLTISRLEPEDFAVYYCGQSYSYPFTFGQGTKLEIKR
notes: MAB4 with the glycation site KH changed to RN
For the molecule B10, the binding result in assay [2] is on record as “binds”; in assay [3] it was “no binding (tested: 0.5 µg/mL or 1 µg/mL)”.

B11: MAB6 Fab (human full-chain Fab) (Fab, V domains shown)
VH: EVQLVESGGGLVQSGGSLRLSCAASGFSLSSYGVDWVRQAPGKGLEWLGVIWGGGGTYYTSSLMARFTISRDNSKNTLYLQMNSLRAEDTAVYYCAKHAYGHDGGFAMDYWGQGTLVTVSS
VL: EIVMTQSPATLSVSPGERATLSCRASESVSSNVAWYQQRPGQAPRLLIYGASNRATGIPARFSGSGSGTDFTLTISRLEPEDFAVYYCGQSYSYPFTFGQGTKLEIK
notes: human kappa constant; also called MAB6(c)
Turning to B11, the dissociation constant Kd in assay [10] came out at 5.94 nM.
